In PMC4449531, “Identification and characterization of a novel group of legume-specific, Golgi apparatus-localized WRKY and Exo70 proteins from soybean”:

Columns and labels:
GmWRP1 = target: T1, GmWRP1 (Glycine max, UniProt I1MBG9 1-332); assay: EMSA; not stated; EMSA as in Zheng et al., 2006; conditions: protein: recombinant; tags: His (pET32a); label: labelled by Klenow fill-in
T1 sequence: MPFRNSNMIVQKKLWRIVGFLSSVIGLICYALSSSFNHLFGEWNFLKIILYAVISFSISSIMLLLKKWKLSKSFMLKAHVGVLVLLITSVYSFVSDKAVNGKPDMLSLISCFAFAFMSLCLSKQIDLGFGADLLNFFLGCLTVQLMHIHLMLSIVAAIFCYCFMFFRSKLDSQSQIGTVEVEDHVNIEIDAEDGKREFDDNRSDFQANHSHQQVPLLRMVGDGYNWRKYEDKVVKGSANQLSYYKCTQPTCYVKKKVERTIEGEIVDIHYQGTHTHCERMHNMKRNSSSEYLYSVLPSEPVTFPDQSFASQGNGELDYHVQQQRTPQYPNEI

AtWRKY33 = AtWRKY33 (Arabidopsis, UniProt Q8S8P5 1-519); assay: EMSA; not stated; EMSA as in Zheng et al., 2006; conditions: protein: recombinant; tags: His (pET32a); label: labelled by Klenow fill-in
Chain of AtWRKY33 (Q8S8P5 whole entry): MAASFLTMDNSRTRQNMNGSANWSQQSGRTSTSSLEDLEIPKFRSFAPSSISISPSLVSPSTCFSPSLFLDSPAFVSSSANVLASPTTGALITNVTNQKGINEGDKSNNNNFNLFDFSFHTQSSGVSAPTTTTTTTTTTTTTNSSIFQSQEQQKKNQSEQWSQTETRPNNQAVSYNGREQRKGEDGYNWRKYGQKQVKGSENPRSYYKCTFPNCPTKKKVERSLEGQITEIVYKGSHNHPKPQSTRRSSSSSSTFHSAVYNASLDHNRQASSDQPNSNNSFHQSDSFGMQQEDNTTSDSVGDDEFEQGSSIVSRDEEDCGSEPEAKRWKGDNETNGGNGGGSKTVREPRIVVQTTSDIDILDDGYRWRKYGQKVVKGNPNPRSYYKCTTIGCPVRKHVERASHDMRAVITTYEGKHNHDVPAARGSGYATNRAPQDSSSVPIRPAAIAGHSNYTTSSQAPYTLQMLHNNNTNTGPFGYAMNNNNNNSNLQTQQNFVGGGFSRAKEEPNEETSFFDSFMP

B1: Pchn0 (dsDNA)
DNA 1: GGAACTTGACCTTGACCTTAGGGCTGCAGGAATTCG
DNA 2: CGAATTCCTGCAGCCCTAAGGTCAAGGTCAAGTTCC
What does the source list for B1?
binding result (GmWRP1): no binding; binding result (AtWRKY33): binds

B2: mPchn0 (dsDNA)
DNA 1: GGAACTTGAACTTGAACTTAGGGCTGCAGGAATTCG
DNA 2: CGAATTCCTGCAGCCCTAAGTTCAAGTTCAAGTTCC
Which results are given for B2?
binding result (GmWRP1): no binding; binding result (AtWRKY33): no binding
